Source: patent US20180057581A1 (MorphoSys, published 2018)

Legend:
[1] = biological target: Antitrypsin (human) (human, UniProt P01009 25-418); test: MSD specificity profiling, coated protein, Camille at 10 nM
Procedure: (§1) For this specificity profiling test the different proteins and controls were coated on two 384-well MSD plates with a concentration of 1 μg/ml at 4° C. over night. Plates were blocked with BSA and washed three times with PBS with 0.05% (v/v) Tween 20. Antibody samples were diluted to 100 nM and 10 nM in assay buffer (PBS with 0.5% (w/v) BSA, 0.05% (v/v) Tween 20). […] Samples and controls were incubated for three hours at room temperature. The plates were washed three times and 30 μl detection antibody (ECL-labeled anti-human Fab) were added per well and incubated for 1 h. After washing, MSD Read Buffer T with surfactant was added and electrochemiluminescence signals were detected using a Sector Imager 6000 (Meso Scale Discovery, Gaithersburg, Md., USA).

[2] = biological target: Cytokine 2 (human) (human); test: as above
Procedure: as §1

[3] = biological target: Anti-human Fc (Dianova, #109-005-098); test: as above
Procedure: as §1

[4] = biological target: T1, Fibrinogen (bovine) (bovine, UniProt P02672 20-615; P02676 1-468; P12799 25-444); test: as above
T1 sequence (looked up) 1: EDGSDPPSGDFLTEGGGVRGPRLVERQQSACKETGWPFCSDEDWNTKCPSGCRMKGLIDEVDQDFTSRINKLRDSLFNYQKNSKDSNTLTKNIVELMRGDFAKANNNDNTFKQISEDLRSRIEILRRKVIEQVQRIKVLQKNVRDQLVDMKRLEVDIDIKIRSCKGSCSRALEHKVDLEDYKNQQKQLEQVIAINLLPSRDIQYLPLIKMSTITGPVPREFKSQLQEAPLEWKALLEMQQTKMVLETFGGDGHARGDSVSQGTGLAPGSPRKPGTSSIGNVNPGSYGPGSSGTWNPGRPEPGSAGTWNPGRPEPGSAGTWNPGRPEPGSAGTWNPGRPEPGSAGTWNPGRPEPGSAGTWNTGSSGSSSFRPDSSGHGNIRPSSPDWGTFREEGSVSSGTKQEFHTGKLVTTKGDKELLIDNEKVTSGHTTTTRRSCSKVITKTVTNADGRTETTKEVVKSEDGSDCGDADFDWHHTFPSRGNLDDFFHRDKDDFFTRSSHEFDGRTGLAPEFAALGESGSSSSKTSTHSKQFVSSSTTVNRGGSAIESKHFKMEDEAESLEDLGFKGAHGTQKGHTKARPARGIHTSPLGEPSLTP
T1 sequence (looked up) 2: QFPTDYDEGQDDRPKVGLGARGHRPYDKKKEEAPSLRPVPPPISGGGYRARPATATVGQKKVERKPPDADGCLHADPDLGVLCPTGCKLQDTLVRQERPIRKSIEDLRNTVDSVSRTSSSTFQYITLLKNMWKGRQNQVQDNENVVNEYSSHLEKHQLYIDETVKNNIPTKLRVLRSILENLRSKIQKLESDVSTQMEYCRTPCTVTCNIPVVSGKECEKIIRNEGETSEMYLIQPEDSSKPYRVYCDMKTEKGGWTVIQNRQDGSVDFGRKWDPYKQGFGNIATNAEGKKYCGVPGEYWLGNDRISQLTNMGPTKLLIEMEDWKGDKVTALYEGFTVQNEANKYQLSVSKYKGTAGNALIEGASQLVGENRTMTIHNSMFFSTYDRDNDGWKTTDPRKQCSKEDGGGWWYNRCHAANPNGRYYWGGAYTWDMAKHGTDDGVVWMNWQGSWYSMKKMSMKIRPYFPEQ
T1 sequence (looked up) 3: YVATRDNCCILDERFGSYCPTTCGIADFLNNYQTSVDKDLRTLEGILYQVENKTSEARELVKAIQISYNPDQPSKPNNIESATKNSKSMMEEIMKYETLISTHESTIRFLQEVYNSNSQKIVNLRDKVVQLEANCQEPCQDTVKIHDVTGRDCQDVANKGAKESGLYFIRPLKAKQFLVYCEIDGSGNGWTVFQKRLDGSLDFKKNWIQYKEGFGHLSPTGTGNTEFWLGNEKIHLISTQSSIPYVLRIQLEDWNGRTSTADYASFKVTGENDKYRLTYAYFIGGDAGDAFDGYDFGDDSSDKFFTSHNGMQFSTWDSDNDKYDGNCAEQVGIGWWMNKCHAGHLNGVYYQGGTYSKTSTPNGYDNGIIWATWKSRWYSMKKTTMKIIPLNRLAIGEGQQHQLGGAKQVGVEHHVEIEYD
Procedure: as §1

[5] = biological target: Lysozyme (chicken) (chicken, UniProt P00698 19-147); test: as above
Chain of Lysozyme (chicken) (P00698 19-147): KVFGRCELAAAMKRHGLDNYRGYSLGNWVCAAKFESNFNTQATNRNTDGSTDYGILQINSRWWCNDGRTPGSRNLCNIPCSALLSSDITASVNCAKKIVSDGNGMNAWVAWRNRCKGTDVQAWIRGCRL
Procedure: as §1

[6] = biological target: Trypsin inhibitor (Soybean) (Soybean); test: as above
Chain of Trypsin inhibitor (Soybean) (Soybean) (P01070 25-205): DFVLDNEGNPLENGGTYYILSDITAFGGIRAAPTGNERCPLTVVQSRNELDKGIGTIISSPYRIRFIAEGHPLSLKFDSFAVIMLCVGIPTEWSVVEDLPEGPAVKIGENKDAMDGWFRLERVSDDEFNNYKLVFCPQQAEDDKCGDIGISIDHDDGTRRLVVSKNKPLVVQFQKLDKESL
Procedure: as §1

[7] = biological target: T2, RNase A (cow) (cow, UniProt P61823 27-150); test: as above
T2 sequence (looked up): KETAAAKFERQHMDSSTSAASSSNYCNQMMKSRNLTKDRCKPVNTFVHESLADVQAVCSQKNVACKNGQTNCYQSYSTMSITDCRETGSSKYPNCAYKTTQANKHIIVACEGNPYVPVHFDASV
Procedure: as §1

[8] = biological target: Pepsinogen (pork) (pork, UniProt P00791 16-385); test: as above
Chain of Pepsinogen (pork) (P00791 16-385): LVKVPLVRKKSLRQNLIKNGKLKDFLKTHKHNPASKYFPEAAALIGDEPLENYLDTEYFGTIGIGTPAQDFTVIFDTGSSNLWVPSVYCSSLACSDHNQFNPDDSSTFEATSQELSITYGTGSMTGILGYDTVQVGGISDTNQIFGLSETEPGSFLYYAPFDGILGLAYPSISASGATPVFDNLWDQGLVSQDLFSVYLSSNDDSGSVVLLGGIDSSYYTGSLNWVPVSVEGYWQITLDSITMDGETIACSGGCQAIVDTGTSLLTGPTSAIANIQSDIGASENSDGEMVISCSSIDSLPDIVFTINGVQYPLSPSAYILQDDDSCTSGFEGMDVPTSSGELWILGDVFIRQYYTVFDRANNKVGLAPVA
Procedure: as §1

[9] = biological target: Transferrin (bovine) (bovine, UniProt Q29443 20-704); test: as above
Chain of Transferrin (bovine) (Q29443 20-704 limits assumed): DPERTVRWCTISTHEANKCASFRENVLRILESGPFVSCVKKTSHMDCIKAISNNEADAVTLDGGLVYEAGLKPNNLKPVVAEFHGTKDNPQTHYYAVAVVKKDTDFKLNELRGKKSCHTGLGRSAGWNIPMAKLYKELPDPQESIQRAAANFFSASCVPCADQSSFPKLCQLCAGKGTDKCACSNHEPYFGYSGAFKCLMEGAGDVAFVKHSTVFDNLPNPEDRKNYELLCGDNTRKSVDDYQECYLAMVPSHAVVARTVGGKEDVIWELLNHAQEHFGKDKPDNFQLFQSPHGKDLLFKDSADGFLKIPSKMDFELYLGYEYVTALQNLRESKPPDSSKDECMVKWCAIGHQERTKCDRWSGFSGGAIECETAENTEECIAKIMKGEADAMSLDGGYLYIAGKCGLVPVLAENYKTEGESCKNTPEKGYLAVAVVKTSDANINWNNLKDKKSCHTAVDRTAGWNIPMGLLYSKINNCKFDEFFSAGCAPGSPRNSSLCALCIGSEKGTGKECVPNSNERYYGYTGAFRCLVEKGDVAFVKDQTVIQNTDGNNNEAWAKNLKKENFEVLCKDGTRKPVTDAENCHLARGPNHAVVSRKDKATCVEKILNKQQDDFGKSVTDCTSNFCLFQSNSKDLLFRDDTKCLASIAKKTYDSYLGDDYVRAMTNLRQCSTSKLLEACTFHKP
Procedure: as §1

[10] = biological target: Cell surface receptor 1 (human) (human); test: as above
Procedure: as §1

[11] = biological target: Anti-human Fab (Dianova, # 109-005-097); test: as above
Procedure: as §1

[12] = biological target: T3, Recombinant human sgM-CSF (human, UniProt P09603 33-255); test: cell-based or functional assay
T3 sequence: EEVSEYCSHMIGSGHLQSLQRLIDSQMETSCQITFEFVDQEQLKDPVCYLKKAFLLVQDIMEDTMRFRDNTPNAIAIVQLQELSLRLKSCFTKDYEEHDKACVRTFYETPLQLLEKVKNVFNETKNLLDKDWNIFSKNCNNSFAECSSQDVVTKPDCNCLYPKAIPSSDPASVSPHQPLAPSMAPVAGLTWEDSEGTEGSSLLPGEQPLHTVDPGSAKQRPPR

Chain of Antitrypsin (human) (P01009 25-418 limits assumed): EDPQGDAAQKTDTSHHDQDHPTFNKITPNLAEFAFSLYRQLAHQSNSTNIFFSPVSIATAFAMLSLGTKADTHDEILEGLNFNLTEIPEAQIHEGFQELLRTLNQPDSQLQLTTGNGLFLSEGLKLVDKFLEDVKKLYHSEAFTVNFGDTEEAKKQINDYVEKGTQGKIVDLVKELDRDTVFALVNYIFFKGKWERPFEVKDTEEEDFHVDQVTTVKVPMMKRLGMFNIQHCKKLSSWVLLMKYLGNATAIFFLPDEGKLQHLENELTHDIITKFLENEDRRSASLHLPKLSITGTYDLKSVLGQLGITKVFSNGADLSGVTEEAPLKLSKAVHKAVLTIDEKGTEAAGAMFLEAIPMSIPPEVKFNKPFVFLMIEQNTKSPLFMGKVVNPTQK

B1: Camille (format not stated) (antibody, V domains shown)
VH: QVQLQQSGPGLVKPSQTLSLTCAISGESVSTSSAAWNWIRQSPSRGLEWLGRTYYRSKWKHEYAVSVKSRITINPDTSKNQFSLQLNSVTPEDTAVYYCARDRYYYSAFDYWGQGTLVTVSS
VL: QSALTQPASVSGSPGQSITISCTGTSSDVGGYNSVSWYQQHPGKAPKLLIYAVSNRPSGVSNRFSGSKSGNTASLTISGLQAEDEADYYCASYDERFTRVFGGGTKLTVLG
notes: also called Antibody Camille
[1]
  signal normalized to reference antibody MOR03207: 1 ratio
[2]
  signal normalized to reference antibody MOR03207: 1 ratio
[3]
  signal normalized to reference antibody MOR03207: 1 ratio
[4]
  signal normalized to reference antibody MOR03207: 1 ratio
[5]
  signal normalized to reference antibody MOR03207: 0 ratio
[6]
  signal normalized to reference antibody MOR03207: 1 ratio
[7]
  signal normalized to reference antibody MOR03207: 1 ratio
[8]
  signal normalized to reference antibody MOR03207: 1 ratio
[9]
  signal normalized to reference antibody MOR03207: 1 ratio
[10]
  signal normalized to reference antibody MOR03207: 1 ratio
[11]
  signal normalized to reference antibody MOR03207: 1 ratio
[12]
  Cell viability assay (IC50), Human M-CSF: 2 pM
